The target in this experiment is protein G-Fc (Fc specific protein G variant). Nature of the experiment: SPR. (In SPR one partner is held on a chip, and binding of the other changes the refractive index at the surface.)

For one substance, Kd results are on record in paper PMC11761708.

Substance “human Fc (Fc domain of IgG) (domain or fragment)” showed a dissociation constant Kd of 3.8 nM.

As usually defined, the Kd is the concentration at which binding is half-saturated. Higher therefore signals weaker binding.
